Experimental data as given in the supplement of paper PMC12042874.
± gives the uncertainty stated by the source.

Assay: amyloid nucleation score (Sup35N fusion, yeast selection) (log enrichment); library NNK1; higher = more nucleation; inactive = no reads after selection
In short: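 Libraries of peptides of 20 random codons fused to Sup35N were expressed in psi-negative yeast and induced 24 hours with 100 μM copper sulfate. Selection was 7 days at 30°C on medium lacking adenine and uracil, and plasmid inserts were Illumina-sequenced before and after selection. Nucleation score is the DiMSum log enrichment of output over input reads, centred on the mode score of non-aggregating sequences, and sequences with under 100 input reads were left out.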

Substance	amyloid nucleation score
QHHSRRMNLGC	-0.407 ± 0.32
QHTNTSLSVTTPPVLYWNHC	0.419 ± 0.45
QHYMQVIDLGSWWSSWVYFI	-0.005 ± 0.97
QIIEPRARENGRINMMMVGG	0.481 ± 0.61
QILCLTVVSVFQGYSVMIPF	0.022 ± 0.32
QINLSGVSVDEWLSLWYGVL	0.468 ± 0.72
QIPPRDL	0.274 ± 0.51
QIRGGGAGSDSVDGHRALEA	1.08 ± 0.59
QISVGTYWFANWCGIILNQV	1.99 ± 0.28
QISVNQIY	inactive
QKIDNSIGQFYRKI	-1.15 ± 0.59
QKLCCLSNVVLNTGP	inactive
QLCGFITCIISMSLPGYQCE	7.816 ± 0.052
QLCGVVK	-1.07 ± 1.6
QLFMHPRGIMKGLF	0.581 ± 0.52
QLFVRFGRSARLVIAESQKA	-0.077 ± 0.33
QLNLNLFACQCSTV	8.072 ± 0.076
QMGCAYEDARRSHDFKCCFG	0.013 ± 0.42
QMTCSD	1.6 ± 0.8
QMYFSFYLLCCLSSEFSI	3.02 ± 0.11
QNFDHTIHRISVVVPGA	-0.099 ± 1.6
QNLYVLDSYSLLNNFVSCII	-0.623 ± 0.35
QNMLDWLKLGLYYHNFQAWV	-0.94 ± 2.7
QNMLFTIKRFSNQPDTVVFE	-0.202 ± 0.49
QNPFSTSHIVRSLLCLNDVI	inactive
QNRLS	2.28 ± 0.61

Substance	amyloid nucleation score
QRECWMYMMFMGYHLLEAQV	0.215 ± 1.2
QRGMTIL	0.109 ± 0.31
QRHITSL	-1.37 ± 1.9
QRIFTRLIYIRYAIPKFRTK	-0.399 ± 0.32
QRNHWLYGVTLMPCSHICIL	7.594 ± 0.053
QRNVPIGLVRYDAV	0.45 ± 1.1
QRRHYTWMLIRKRSSLHKAR	-0.462 ± 0.59
QSFFHCVLYAIPHVRLS	-1.07 ± 1.1
QSICFYSLKQCIRAKHR	0.774 ± 0.37
QSNLYLLALELAYECYSGCH	0.049 ± 0.72
QTGQRFALKDSTSNSIPYLE	-0.607 ± 0.96
QTGRFDIVSAS	3.52 ± 0.069
QTLGVGSRYVNVNSGLITQL	-0.05 ± 0.29
QTNMMSTHHP	0.39 ± 0.41
QTRSPQFKPAAYRVFLVDLC	-0.159 ± 0.77
QTRWACTTQCGCKCFFE	1.53 ± 0.15
QVFVIIIFPCMQWYDMYCSD	0.356 ± 0.55
QVLQNCRGTFDDRILLFNGI	-0.288 ± 0.8
QVNLANFGRRKCKRKGR	0.185 ± 0.44
QVSANSY	3.59 ± 0.082
QVWSPHSVSKFGPGPPVTEA	-0.388 ± 1.4
QWNEDLSLWPDLKYGHMLLS	0.052 ± 0.52
QYDFQ	-0.532 ± 0.88
QYGWCIAYSLELCSLSPNLI	0.326 ± 0.37
QYYFDLIDLGITVDVMS	0.684 ± 0.84
RADPYVYLMEGVCGPRWEPN	0.014 ± 0.77

Substance	amyloid nucleation score
RANSGNVTFMVRPAFMVVLK	-0.389 ± 0.78
RANSYGGMSNVLW	0.281 ± 0.28
RCASALVSGVTSVSLRTVQD	0.83 ± 0.73
RCCGLYVSLWIS	0.425 ± 0.6
RCCYCLGLFVWATCVGGVRT	3.1 ± 0.24
RCDGTQDKCWDKSLLFGERR	0.618 ± 0.45
RCGLAQSSVSSSVKGPRVTW	-0.31 ± 0.6
RCIVWC	0.207 ± 0.56
RCLTPVIRVIYFG	-0.13 ± 0.3
RCQNRH	-0.221 ± 0.46
RCVAPAV	0.151 ± 0.56
RCVSFPIWRFIPEVLVIWLG	-1.04 ± 1.3
RCYCDNFVLGLVEL	0.267 ± 0.29
RCYYLGHVHRICGRWGWGPR	0.37 ± 0.52
RDDLNTTWFLGRSTLGLMLW	0.168 ± 0.6
RDFWVSRTALMGGYWCWL	-0.175 ± 0.35
RDIRVHATDLNENNCVAHCR	-0.356 ± 0.32
RDNFEMFSPAAKYALFASGT	inactive
RDRNNCYFSDDSNLREAT	-0.634 ± 0.62
RDTICITL	0.311 ± 0.82
RDTNKSIQ	0.208 ± 0.56
RENYRAGTFVYGSPRLGPAW	0.44 ± 0.88
RFDVSMRYLSRSDVYDICAR	0.177 ± 0.59
RFEKTWHWSAIAGRQGGGIF	-0.697 ± 0.88
RFFFGYAK	2.02 ± 0.2
RFGFSLSADIMDPRMIVRCM	-0.227 ± 0.24

Substance	amyloid nucleation score
RFHNRFLYLFKFIQAQINKC	0.187 ± 0.41
RFKRWGKR	0.39 ± 0.41
RFLAWTSLPQGAAKVIMKC	0.126 ± 0.53
RFLSQNGNLIPGRRLPTGVR	0.54 ± 0.54
RFLSVISDKTIAYWPSDVVS	0.377 ± 0.99
RFLYVGCCINTIVGFTWFRS	3.28 ± 0.11
RFSAK	0.585 ± 0.33
RFSTTFYSVAVVYKRDSR	1.86 ± 0.24
RFTSDAQ	-0.524 ± 0.24
RFVRYQSQHFHKLNSWWGCL	0.135 ± 0.39
RFWINIPKYSTIL	-0.751 ± 1.7
RFYKCVLDVNTHLV	0.883 ± 0.6
RGEKLQEVMSVGYWIGFFNN	0.907 ± 0.27
RGELAVRKPG	0.402 ± 0.28
RGGWRTVQCSLNQGWLRRYL	0.048 ± 0.42
RGHLKLVTNYISMSRVSYFS	2.07 ± 0.16
RGLGWHHRLSCYRSAGFARA	-0.719 ± 2.1
RGNDLFTQVASMKSV	-0.207 ± 0.55
RGNPNTVGIITWCDDVFFFQ	3.07 ± 0.25
RGNVCCTMIC	6.09 ± 0.074
RGSMSEWNILYVYASIYKGD	1.6 ± 0.42
RGTWNDMASGEEVVAFIGEY	0.51 ± 0.35
RHCLKVFSEDTYESVKVVLR	0.428 ± 0.75
RHSITLFLVTVETVRACVFK	-0.714 ± 1.2
RILEGVFS	inactive
RILMFKYGKTWRPQCCQD	0.04 ± 0.53

Substance	amyloid nucleation score
RILTDLRKICADCNRILPFW	-0.557 ± 1.2
RIMLFFCCSSKVFDFPVLLM	6.4 ± 0.064
RIPASFRITYVDSIKCKPF	4.15 ± 0.088
RIYSFHILVS	-0.629 ± 0.38
RKRNKYILYYRCNRWFQLYC	-0.323 ± 1.6
RKSPATVVFSRPSLWLYGRR	2.97 ± 0.094
RKWNS	0.152 ± 0.72
RLAYYFKGNANDFLAYLAKY	-0.66 ± 0.76
RLCRTVEWCGCYSIPNLQCA	0.118 ± 0.46
RLCWQDIGTLFVSWPRMIFV	0.071 ± 0.45
RLEYCSRRWLANTLSGGRSL	0.002 ± 0.96
RLFALLWNDFDRSGVAMPVL	-0.379 ± 0.36
RLFHFWQSDGLVGSTKRVDY	0.128 ± 0.42
RLFITCRAL	2.52 ± 0.18
RLFLSLLMKSRTIMRRKGLV	2.54 ± 0.15
RLGLVVSVGRRRLLTAQLGK	1.38 ± 0.72
RLKYYNYERFRLVVLCRVHG	-0.053 ± 1.1
RLLEIWFMLRFGLFVSQCTI	-0.148 ± 0.34
RLLGYLAGVGNVKICRPSAV	0 ± 1
RLLPGFERGVLYYWA	0.568 ± 0.43
RLMDTYAEAHTQDRDMIRDV	0.286 ± 0.49
RLQDSLPTSEVTEIPPPAN	-0.405 ± 0.33
RLRSMAAP	0.513 ± 0.66
RLRTNVLSNRVGDPIMTSHV	0.158 ± 0.54
